{"source": "paper PMC8241641", "about": "(European Journal of Nuclear Medicine and Molecular Imaging, 2021)", "origin": "cited, not measured here", "design": "method as in PMID 28864620", "data": [{"substance": "[^177Lu]Lu-DOTA-TATE", "values": [{"measurement": "Dose to the bone marrow typically calculated", "value": "0.03–0.07 Gy/GBq"}]}]}
